Laboratory results: FireProtDB (doi:10.1016/j.bbapap.2007.05.016)
Several values for one entry are separate records, joined by “and”; a condition that tells them apart may be missing. Identical values can stand only once.

Details: Streptomyces sp. (strain N174), Thermal, Fluorescence, reversible: No, whole UniProt chain shown

B1: Chitosanase wild type, P33665 (protein)
chain: MHSQHRTARIALAVVLTAIPASLATAGVGYASTQASTAVKAGAGLDDPHKKEIAMELVSSAENSSLDWKAQYKYIEDIGDGRGYTGGIIGFCSGTGDMLELVQHYTDLEPGNILAKYLPALKKVNGSASHSGLGTPFTKDWATAAKDTVFQQAQNDERDRVYFDPAVSQAKADGLRALGQFAYYDAIVMHGPGNDPTSFGGIRKTAMKKARTPAQGGDETTYLNAFLDARKAAMLTEAAHDDTSRVDTEQRVFLKAGNLDLNPPLKWKTYGDPYVINS
In the case of B1, the Tm (pH 4.5, Sodium acetate 50 mM) is reported as 53.5 °C and 54 °C, the Tm (pH 4.5, Sodium acetate 150 mM) is reported as 44.4 °C and the Tm (pH 4.75, Sodium phosphate 50 mM) is reported as 53.7 °C. The Tm (pH 7, Sodium phosphate 50 mM) was 41.3 °C.
